Reference: publication PMC3936715, “Structural and functional analysis of the three MIF4G domains of nonsense-mediated decay factor UPF2” (Nucleic Acids Research, 2013)

B2: UPF2 MIF4G-3 domain (residues 761–1054) (domain or fragment, human, UniProt Q9HAU5 761-1054, looked up)
chain: EKTVKKKRPPLQEYVRKLLYKDLSKVTTEKVLRQMRKLPWQDQEVKDYVICCMINIWNVKYNSIHCVANLLAGLVLYQEDVGIHVVDGVLEDIRLGMEVNQPKFNQRRISSAKFLGELYNYRMVESAVIFRTLYSFTSFGVNPDGSPSSLDPPEHLFRIRLVCTILDTCGQYFDRGSSKRKLDCFLVYFQRYVWWKKSLEVWTKDHPFPIDIDYMISDTLELLRPKIKLCNSLEESIRQVQDLEREFLIKLGLVNDKDSKDSMTEGENLEEDEEEEEGGAETEEQSGNESEVNE
notes: UPF2, human, Q9HAU5, MIF4G-3 construct, residues 761-1054; Limits are printed for the construct 'which we used as substrate in our assays'; also called MIF4G domain 3

Assays:
[1] = target: T1, SMG1 (full-length recombinant, wild-type, N-terminal SBP-tag) (UniProt Q96Q15 1-3661); assay: SPR; SMG1 immobilised via its N-terminal SBP-tag on a streptavidin (SA) chip, ~2000 RU, BIAcore 3000; analyte titrated at 25 µl/min; apparent KD from RUmax against concentration, one binding site model; details: both partners purified
T1 construct: SMG1, serine/threonine-protein kinase of the PIKK family, about 415 kDa, full-length, wild type; also called SMG1 kinase; wild-type SMG1; source: recombinant, purified; not shown: SBP, N-terminal, kept
T1 sequence (Q96Q15 whole entry): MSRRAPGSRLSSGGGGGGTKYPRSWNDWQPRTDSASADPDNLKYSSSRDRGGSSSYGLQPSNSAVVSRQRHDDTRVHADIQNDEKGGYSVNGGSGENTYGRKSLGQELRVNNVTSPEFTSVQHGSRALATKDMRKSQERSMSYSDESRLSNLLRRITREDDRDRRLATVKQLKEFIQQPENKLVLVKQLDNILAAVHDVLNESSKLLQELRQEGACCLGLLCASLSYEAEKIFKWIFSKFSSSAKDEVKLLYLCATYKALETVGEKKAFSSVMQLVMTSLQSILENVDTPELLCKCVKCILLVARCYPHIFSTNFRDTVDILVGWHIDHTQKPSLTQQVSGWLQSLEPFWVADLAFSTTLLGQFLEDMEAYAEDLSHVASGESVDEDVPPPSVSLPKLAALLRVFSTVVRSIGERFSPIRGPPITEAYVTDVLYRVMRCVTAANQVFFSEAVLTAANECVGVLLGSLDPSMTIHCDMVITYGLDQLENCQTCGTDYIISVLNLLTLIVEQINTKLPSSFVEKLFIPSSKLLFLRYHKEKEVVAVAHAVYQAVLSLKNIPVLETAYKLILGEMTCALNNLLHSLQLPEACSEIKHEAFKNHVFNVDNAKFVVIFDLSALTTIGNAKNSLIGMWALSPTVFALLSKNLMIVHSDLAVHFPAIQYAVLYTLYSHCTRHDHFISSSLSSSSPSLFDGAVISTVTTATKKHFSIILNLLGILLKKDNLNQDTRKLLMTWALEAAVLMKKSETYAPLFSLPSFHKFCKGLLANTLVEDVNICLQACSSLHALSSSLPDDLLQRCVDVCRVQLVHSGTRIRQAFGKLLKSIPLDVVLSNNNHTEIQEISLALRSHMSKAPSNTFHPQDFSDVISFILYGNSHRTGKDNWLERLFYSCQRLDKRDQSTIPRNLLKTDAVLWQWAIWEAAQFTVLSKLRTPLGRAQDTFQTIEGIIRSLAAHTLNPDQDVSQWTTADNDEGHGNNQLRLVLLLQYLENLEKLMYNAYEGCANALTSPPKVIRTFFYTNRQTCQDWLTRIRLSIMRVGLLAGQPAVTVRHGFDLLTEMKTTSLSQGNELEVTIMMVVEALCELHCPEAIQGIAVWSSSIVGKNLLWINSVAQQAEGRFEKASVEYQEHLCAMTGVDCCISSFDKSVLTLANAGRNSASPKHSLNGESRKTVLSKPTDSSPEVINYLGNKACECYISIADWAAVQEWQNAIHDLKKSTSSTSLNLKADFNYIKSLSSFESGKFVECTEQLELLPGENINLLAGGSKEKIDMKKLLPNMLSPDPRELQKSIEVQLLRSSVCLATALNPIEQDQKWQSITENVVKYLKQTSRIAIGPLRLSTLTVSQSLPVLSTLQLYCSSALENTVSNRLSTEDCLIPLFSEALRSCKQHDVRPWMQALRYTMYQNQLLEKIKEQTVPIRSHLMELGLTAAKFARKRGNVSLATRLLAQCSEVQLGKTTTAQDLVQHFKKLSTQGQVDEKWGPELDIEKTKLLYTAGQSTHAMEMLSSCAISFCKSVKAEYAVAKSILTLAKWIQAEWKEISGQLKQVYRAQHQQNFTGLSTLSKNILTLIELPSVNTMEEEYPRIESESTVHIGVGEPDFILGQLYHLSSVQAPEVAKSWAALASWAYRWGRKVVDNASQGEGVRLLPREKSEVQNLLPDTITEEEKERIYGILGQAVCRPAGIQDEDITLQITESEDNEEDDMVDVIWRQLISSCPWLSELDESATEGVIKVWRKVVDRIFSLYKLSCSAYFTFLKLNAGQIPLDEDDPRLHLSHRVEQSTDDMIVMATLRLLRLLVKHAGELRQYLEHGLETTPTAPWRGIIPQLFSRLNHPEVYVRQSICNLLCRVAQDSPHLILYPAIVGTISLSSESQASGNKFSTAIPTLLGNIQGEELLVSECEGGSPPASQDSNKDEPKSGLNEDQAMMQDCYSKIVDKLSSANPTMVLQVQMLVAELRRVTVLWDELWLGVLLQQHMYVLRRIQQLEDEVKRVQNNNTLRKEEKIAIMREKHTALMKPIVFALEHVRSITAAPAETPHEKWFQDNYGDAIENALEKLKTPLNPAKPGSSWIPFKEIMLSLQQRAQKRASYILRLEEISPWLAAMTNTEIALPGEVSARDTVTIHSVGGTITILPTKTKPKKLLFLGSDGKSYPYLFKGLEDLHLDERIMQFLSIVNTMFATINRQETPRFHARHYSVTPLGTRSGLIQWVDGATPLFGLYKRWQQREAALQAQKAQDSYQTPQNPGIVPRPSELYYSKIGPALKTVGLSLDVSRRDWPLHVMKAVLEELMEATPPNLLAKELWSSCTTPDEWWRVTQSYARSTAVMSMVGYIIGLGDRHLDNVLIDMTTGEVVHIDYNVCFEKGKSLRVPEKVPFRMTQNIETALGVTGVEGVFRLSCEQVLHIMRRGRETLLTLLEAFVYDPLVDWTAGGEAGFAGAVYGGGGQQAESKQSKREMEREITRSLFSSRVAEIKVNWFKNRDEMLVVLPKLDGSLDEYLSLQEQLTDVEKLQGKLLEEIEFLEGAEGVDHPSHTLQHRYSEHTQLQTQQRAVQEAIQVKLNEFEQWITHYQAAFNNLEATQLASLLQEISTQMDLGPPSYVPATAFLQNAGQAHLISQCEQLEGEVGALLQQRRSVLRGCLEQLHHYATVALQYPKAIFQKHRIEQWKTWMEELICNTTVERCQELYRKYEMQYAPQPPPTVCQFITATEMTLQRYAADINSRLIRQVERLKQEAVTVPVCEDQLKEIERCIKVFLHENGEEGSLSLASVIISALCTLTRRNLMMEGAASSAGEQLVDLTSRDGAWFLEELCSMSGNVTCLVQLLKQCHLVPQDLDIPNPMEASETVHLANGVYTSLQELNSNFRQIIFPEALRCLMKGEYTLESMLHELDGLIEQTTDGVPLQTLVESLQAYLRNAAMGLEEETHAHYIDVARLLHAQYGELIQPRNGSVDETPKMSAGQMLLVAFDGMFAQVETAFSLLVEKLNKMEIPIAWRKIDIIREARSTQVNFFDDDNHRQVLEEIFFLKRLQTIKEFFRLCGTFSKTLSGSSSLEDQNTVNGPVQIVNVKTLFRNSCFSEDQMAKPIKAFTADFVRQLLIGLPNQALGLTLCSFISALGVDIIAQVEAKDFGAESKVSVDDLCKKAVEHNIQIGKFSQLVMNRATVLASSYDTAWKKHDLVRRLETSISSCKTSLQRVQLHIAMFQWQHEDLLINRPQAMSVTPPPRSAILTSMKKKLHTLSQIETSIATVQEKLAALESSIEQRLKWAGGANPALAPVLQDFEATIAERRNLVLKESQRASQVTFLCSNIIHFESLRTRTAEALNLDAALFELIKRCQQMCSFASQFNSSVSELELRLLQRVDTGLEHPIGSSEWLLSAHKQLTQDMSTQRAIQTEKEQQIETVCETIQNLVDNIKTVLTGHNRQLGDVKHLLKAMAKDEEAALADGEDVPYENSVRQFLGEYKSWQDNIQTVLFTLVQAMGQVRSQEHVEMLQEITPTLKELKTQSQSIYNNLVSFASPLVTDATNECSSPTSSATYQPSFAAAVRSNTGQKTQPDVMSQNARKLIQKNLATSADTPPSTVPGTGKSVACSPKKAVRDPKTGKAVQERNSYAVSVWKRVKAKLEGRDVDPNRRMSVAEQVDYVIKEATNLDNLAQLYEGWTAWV

[2] = target: B2; assay: SPR; competition: SMG1 immobilised; MIF4G-3 at constant 50 nM injected with 0, 50, 250, 500 nM UPF3b RRM domain; details: both partners purified

B1: UPF2 (121–1227), all three MIF4G domains and the UPF1 binding domain (domain or fragment, human, UniProt Q9HAU5 121-1227, looked up)
chain: MKEKEESIQLHQEAWERHHLRKELRSKNQNAPDSRPEENFFSRLDSSLKKNTAFVKKLKTITEQQRDSLSHDFNGLNLSKYIAEAVASIVEAKLKISDVNCAVHLCSLFHQRYADFAPSLLQVWKKHFEARKEEKTPNITKLRTDLRFIAELTIVGIFTDKEGLSLIYEQLKNIINADRESHTHVSVVISFCRHCGDDIAGLVPRKVKSAAEKFNLSFPPSEIISPEKQQPFQNLLKEYFTSLTKHLKRDHRELQNTERQNRRILHSKGELSEDRHKQYEEFAMSYQKLLANSQSLADLLDENMPDLPQDKPTPEEHGPGIDIFTPGKPGEYDLEGGIWEDEDARNFYENLIDLKAFVPAILFKDNEKSCQNKESNKDDTKEAKESKENKEVSSPDDLELELENLEINDDTLELEGGDEAEDLTKKLLDEQEQEDEEASTGSHLKLIVDAFLQQLPNCVNRDLIDKAAMDFCMNMNTKANRKKLVRALFIVPRQRLDLLPFYARLVATLHPCMSDVAEDLCSMLRGDFRFHVRKKDQINIETKNKTVRFIGELTKFKMFTKNDTLHCLKMLLSDFSHHHIEMACTLLETCGRFLFRSPESHLRTSVLLEQMMRKKQAMHLDARYVTMVENAYYYCNPPPAEKTVKKKRPPLQEYVRKLLYKDLSKVTTEKVLRQMRKLPWQDQEVKDYVICCMINIWNVKYNSIHCVANLLAGLVLYQEDVGIHVVDGVLEDIRLGMEVNQPKFNQRRISSAKFLGELYNYRMVESAVIFRTLYSFTSFGVNPDGSPSSLDPPEHLFRIRLVCTILDTCGQYFDRGSSKRKLDCFLVYFQRYVWWKKSLEVWTKDHPFPIDIDYMISDTLELLRPKIKLCNSLEESIRQVQDLEREFLIKLGLVNDKDSKDSMTEGENLEEDEEEEEGGAETEEQSGNESEVNEPEEEEGSDNDDDEGEEEEEENTDYLTDSNKENETDEENTEVMIKGGGLKHVPCVEDEDFIQALDKMMLENLQQRSGESVKVHQLDVAIPLHLKSQLRKGPPLGGGEGEAESADTMPFVMLTRKGNKQQFKILNVPMSSQLAANHWNQQQAEQEERMRMKKLTLDINERQEQED
notes: UPF2, human, Q9HAU5, residues 121-1227; the host of this construct is told only in the Supplementary Material
[1]
  Kd: 0.037 ± 0.005 µM

## B2
[1]
  Kd: 0.06 ± 0.005 µM

B3: preformed UPF2 MIF4G-3/UPF3b complex (complex)
chain 1: EKTVKKKRPPLQEYVRKLLYKDLSKVTTEKVLRQMRKLPWQDQEVKDYVICCMINIWNVKYNSIHCVANLLAGLVLYQEDVGIHVVDGVLEDIRLGMEVNQPKFNQRRISSAKFLGELYNYRMVESAVIFRTLYSFTSFGVNPDGSPSSLDPPEHLFRIRLVCTILDTCGQYFDRGSSKRKLDCFLVYFQRYVWWKKSLEVWTKDHPFPIDIDYMISDTLELLRPKIKLCNSLEESIRQVQDLEREFLIKLGLVNDKDSKDSMTEGENLEEDEEEEEGGAETEEQSGNESEVNE
chain 2: RNKEKKEALSKVVIRRLPPTLTKEQLQEHLQPMPEHDYFEFFSNDTSLYPHMYARAYINFKNQEDIILFRDRFDGYVFLDNKGQEYPAIVEFAPFQKAAKKK
notes: UPF2, human, Q9HAU5, MIF4G-3 construct, residues 761-1054; UPF3b, RRM domain, residues 42-143; also called UPF2 MIF4G-3 in complex with UPF3b; UPF2/UPF3b
[1]
  Kd: 0.034 ± 0.002 µM

B4: UPF3b RRM domain (residues 42–143) (domain or fragment, UniProt Q9BZI7 42-143, looked up)
chain: RNKEKKEALSKVVIRRLPPTLTKEQLQEHLQPMPEHDYFEFFSNDTSLYPHMYARAYINFKNQEDIILFRDRFDGYVFLDNKGQEYPAIVEFAPFQKAAKKK
notes: UPF3b, RRM domain, residues 42-143; also called UPF3b RNP domain
[2]
  binding result: binds
